# Tests used:
# Conditions in all cases: protein: recombinant
# Sox2 (recombinant) [1] = target: T1, Sox2 (recombinant) (UniProt P48432 1-319); assay: EMSA; Sox2 alone; 10 mM Tris pH 8.0, 2 mM MgCl (so in the source), 100 mM KCl, 1.25 mM DTT, 5% glycerol, 0.0625% BSA, 19 ug/ml dGdC, 25 fmol probe in 16 ul, 10 min room temperature; 4% PAGE 0.25X TBE
# Oct4 (recombinant) [2] = target: T2, Oct4 (recombinant) (UniProt P20263 1-352); assay: EMSA; bound both elements equally well; 10 mM Tris pH 8.0, 2 mM MgCl (so in the source), 100 mM KCl, 1.25 mM DTT, 5% glycerol, 0.0625% BSA, 19 ug/ml dGdC, 25 fmol probe in 16 ul, 10 min room temperature; 4% PAGE 0.25X TBE
# T2 sequence (P20263 whole entry): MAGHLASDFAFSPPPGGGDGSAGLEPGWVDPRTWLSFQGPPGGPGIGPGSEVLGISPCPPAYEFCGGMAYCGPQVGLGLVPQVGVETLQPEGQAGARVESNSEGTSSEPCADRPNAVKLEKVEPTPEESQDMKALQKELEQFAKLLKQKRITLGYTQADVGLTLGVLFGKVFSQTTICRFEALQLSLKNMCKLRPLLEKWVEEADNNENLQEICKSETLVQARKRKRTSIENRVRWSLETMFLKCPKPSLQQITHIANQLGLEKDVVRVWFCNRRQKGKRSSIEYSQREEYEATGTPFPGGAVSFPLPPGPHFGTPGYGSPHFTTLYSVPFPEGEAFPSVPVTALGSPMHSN
# Sox2 (recombinant) [3] = target: T1, Sox2 (recombinant); assay: EMSA; 10 mM Tris pH 8.0, 2 mM MgCl (so in the source), 100 mM KCl, 1.25 mM DTT, 5% glycerol, 0.0625% BSA, 19 ug/ml dGdC, 25 fmol probe in 16 ul, 10 min room temperature; 4% PAGE 0.25X TBE
# Sox2 (recombinant) [4] = target: T1, Sox2 (recombinant); assay: EMSA; almost equal to WT; likely via octamer; 10 mM Tris pH 8.0, 2 mM MgCl (so in the source), 100 mM KCl, 1.25 mM DTT, 5% glycerol, 0.0625% BSA, 19 ug/ml dGdC, 25 fmol probe in 16 ul, 10 min room temperature; 4% PAGE 0.25X TBE
# Oct4 (recombinant) [5] = target: T2, Oct4 (recombinant); assay: EMSA; Oct4 binding not altered by Sox mutation; 10 mM Tris pH 8.0, 2 mM MgCl (so in the source), 100 mM KCl, 1.25 mM DTT, 5% glycerol, 0.0625% BSA, 19 ug/ml dGdC, 25 fmol probe in 16 ul, 10 min room temperature; 4% PAGE 0.25X TBE
# T1 sequence (P48432 whole entry): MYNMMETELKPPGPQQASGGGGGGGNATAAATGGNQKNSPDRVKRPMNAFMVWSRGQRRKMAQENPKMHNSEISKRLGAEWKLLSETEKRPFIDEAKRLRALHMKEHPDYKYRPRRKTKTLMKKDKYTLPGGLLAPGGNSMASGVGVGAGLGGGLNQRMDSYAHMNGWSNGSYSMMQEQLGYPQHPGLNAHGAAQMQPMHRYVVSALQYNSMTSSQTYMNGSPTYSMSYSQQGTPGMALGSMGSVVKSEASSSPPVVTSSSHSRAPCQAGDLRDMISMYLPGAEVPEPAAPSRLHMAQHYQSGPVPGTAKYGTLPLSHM
Binder,binding result (Oct4 (recombinant) [2]),binding result (Oct4 (recombinant) [5]),also measured
ICR Sox-OctA (dsDNA) DNA 1: CTGGTGATTTGCGCTTTCGTATTCTAATTGGGGAC DNA 2: GTCCCCAATTAGAATACGAAAGCGCAAATCACCAG,binds,–,binding result (Sox2 (recombinant) [1]): binds
ICR Sox-OctB (dsDNA) DNA 1: TTGGGGCGTTCAGATGCTAATGATCTCCGGCT DNA 2: AGCCGGAGATCATTAGCATCTGAACGCCCCAA,binds,–,–
ICR SoxC (dsDNA) DNA 1: GCTCAGGGCTGCAAACAATTCTGAAACTGCATTCTC DNA 2: GAGAATGCAGTTTCAGAATTGTTTGCAGCCCTGAGC,–,–,binding result (Sox2 (recombinant) [3]): binds
mSA (Sox mutant Sox-OctA) (dsDNA) DNA 1: CTAAGCGCTACGTCCTAGGTATTCTAATTGGGGAC DNA 2: GTCCCCAATTAGAATACCTAGGACGTAGCGCTTAG,–,binds,binding result (Sox2 (recombinant) [4]): binds
mSB (Sox mutant Sox-OctB) (dsDNA) DNA 1: TTGGGGAACGAAGATGCTAATGATCTCCGGCT DNA 2: AGCCGGAGATCATTAGCATCTTCGTTCCCCAA,–,binds,–

# Source: PMC3855764, “Oct4/Sox2 Binding Sites Contribute to Maintaining Hypomethylation of the Maternal Igf2/H19 Imprinting Control Region”
